Experimental data as given in paper PMC8130709, “Structure and activation mechanism of the human liver-type glutaminase GLS2” (Biochimie, 2021).
Where “and” joins values, the source holds several entries; their conditions need not be identical. Equal entries are not always repeated.

Assays:
[1] = molecular target: the molecule itself; assay: SEC; analytical gel filtration of serial dilutions of the protein, in the absence of phosphate; Stokes radius against protein concentration
[2] = molecular target: the molecule itself; assay: crystal structure; ligand-free, sitting drop at 293 K, 0.1 M Tris pH 8.5, 0.2 M NaCl, 25% PEG 3350; space group H 3 2, two monomers in the asymmetric unit, tetramer generated by crystal symmetry

B1: Mouse GLS2 (Leu72-Val602) (enzyme, UniProt Q571F8 72-602, looked up)
chain: LGDLLFYTIAEGQERIPIHKFTTALKATGLQTSDPRLQDCMSKMQRMVQESSSGGLLDRELFQKCVSSNIVLLTQAFRKKFVIPDFEEFTGHVDRIFEDAKEPTGGKVAAYIPHLAKSNPDLWGVSLCTVDGQRHSVGHTKIPFCLQSCVKPLTYAISVSTLGTDYVHKFVGKEPSGLRYNKLSLNEEGIPHNPMVNAGAIVVSSLIKMDCNKAEKFDFVLQYLNKMAGNEFMGFSNATFQSEKETGDRNYAIGYYLKEKKCFPKGVDMMAALDLYFQLCSVEVTCESGSVMAATLANGGICPITGESVLSAEAVRNTLSLMHSCGMYDFSGQFAFHVGLPAKSAVSGAILLVVPNVMGMMCLSPPLDKLGNSQRGINFCQKLVSLFNFHNYDNLRHCARKLDPRREGGEVRNKTVVNLLFAAYSGDVSALRRFALSAMDMEQKDYDSRTALHVAAAEGHIEVVKFLIEACKVNPFVKDRWGNIPLDDAVQFNHLEVVKLLQDYHDSYLLSETQAEAAAETLSKENLESMV
notes: liver-type glutaminase GLS2, mouse, residues Leu72-Val602; also called liver-type glutaminase; wild type; source: recombinant, purified
stoichiometry N [1]: 2 and 4

B2: Mouse GLS2 (Leu72-Val602) Lys253Ala mutant (enzyme, UniProt Q571F8 72-602, looked up)
chain: LGDLLFYTIAEGQERIPIHKFTTALKATGLQTSDPRLQDCMSKMQRMVQESSSGGLLDRELFQKCVSSNIVLLTQAFRKKFVIPDFEEFTGHVDRIFEDAKEPTGGKVAAYIPHLAKSNPDLWGVSLCTVDGQRHSVGHTKIPFCLQSCVKPLTYAISVSTLGTDYVHKFVGKEPSGLRYNALSLNEEGIPHNPMVNAGAIVVSSLIKMDCNKAEKFDFVLQYLNKMAGNEFMGFSNATFQSEKETGDRNYAIGYYLKEKKCFPKGVDMMAALDLYFQLCSVEVTCESGSVMAATLANGGICPITGESVLSAEAVRNTLSLMHSCGMYDFSGQFAFHVGLPAKSAVSGAILLVVPNVMGMMCLSPPLDKLGNSQRGINFCQKLVSLFNFHNYDNLRHCARKLDPRREGGEVRNKTVVNLLFAAYSGDVSALRRFALSAMDMEQKDYDSRTALHVAAAEGHIEVVKFLIEACKVNPFVKDRWGNIPLDDAVQFNHLEVVKLLQDYHDSYLLSETQAEAAAETLSKENLESMV
notes: also called K253A; source: recombinant, purified; point mutant generated by PCR (QuickChange II XL)
stoichiometry N [1]: 4

B3: Human GLS2 glutaminase domain (Ile154-Gly479) (domain or fragment, UniProt Q9UI32-1 154-479, looked up)
chain: IPDFEEFTGHVDRIFEDVKELTGGKVAAYIPQLAKSNPDLWGVSLCTVDGQRHSVGHTKIPFCLQSCVKPLTYAISISTLGTDYVHKFVGKEPSGLRYNKLSLNEEGIPHNPMVNAGAIVVSSLIKMDCNKAEKFDFVLQYLNKMAGNEYMGFSNATFQSEKETGDRNYAIGYYLKEKKCFPKGVDMMAALDLYFQLCSVEVTCESGSVMAATLANGGICPITGESVLSAEAVRNTLSLMHSCGMYDFSGQFAFHVGLPAKSAVSGAILLVVPNVMGMMCLSPPLDKLGNSHRGTSFCQKLVSLFNFHNYDNLRHCARKLDPRREG
notes: liver-type glutaminase GLS2, human, glutaminase (catalytic) domain, residues Ile154-Gly479, common to the LGA and GAB isoforms; Cloned into pNIC28-Bsa4; also called human GLS2 catalytic domain construct; source: E. coli BL21(DE3)-R3-pRARE2, purified (Ni-NTA, Superdex 200 gel filtration, HiTrap Q HP)
stoichiometry N [2]: 4
